In assay [1] the test system is B16 melanoma cells. Nature of the assay: B16 melanoma s.c. tumor, intra-tumoral glycan injection. It is filed as in vivo, B6 mice. The protocol:
(§1) B16 melanoma cells (5×10^5 cells/mouse) were implanted s.c. into B6 mice (n=4); on day 6, 1 mg of Glycan #3 (G3) or Glycan #12 (G12, see FIG. 1A) was injected intra-tumorally 5 times every 2 days. Tumor volume was measured (FIG. 10A). On day 17, tumors (photos of 2 representatives) were excised. […] Similar experiments were performed with RenCa kidney cancer in BALB/c mice and data are shown in FIG. 10C (tumor volume) and 10D (expression of angiogenic factors). Data shown is representative of 2 experiments. *p<0.0001.

Assay [2] has as its system DC-HIL-induced angiogenesis. Nature of the assay: Matrigel plug assay of DC-HIL-induced angiogenesis. In kind it is in vivo, mice. As to conditions: DC-HIL-Fc 200 nM with 10× molecular excess of glycan in matrigel, s.c., 2 weeks. The protocol:
In order to test the role rHS (Glycan #12) plays in controlling angiogenesis, DC-HIL-Fc (DCH) or Fc (200 nM) was mixed with 10× molecular excess of Glycan #3 or Glycan #12 (See FIG. 1A) and added to matrigel, and implanted s.c. into mice; 2 weeks later, plugs were excised and observed for blood vessels under microscope. Representative photos are shown (FIG. 9A). Plugs were quantified for Hb content (FIG. 9B). Red-dashed line indicates Hb level in Fc-control plug. Data are shown average±SD, n=4.

For a further assay, the system named is RenCa kidney cancer. Nature of the assay: RenCa kidney cancer tumor, intra-tumoral glycan injection. In kind it is in vivo, BALB/c mice. The method, then: as §1
A further assay relates to DC-HIL-Fc. Nature of the assay: DC-HIL-Fc binding to HS oligosaccharide microarray. As to conditions: DC-HIL-Fc 10 mg/ml, visualized by Cy-3, FIG. 1B. The method, then: Various HS oligosaccharides (4-8-mers of HS disaccharide) were imprinted on microarray (Gycan Therapeutics Inc). These glycans were chosen based on sulfation patterns in mammalian cells (FIG. 1A). DC-HIL-Fc (10 mg/ml) was applied and then hybridized to the microaway and visualized by Cy-3 (mean±SD, n=6). […] SVEC mouse endothelial cells or activated T-cells were then incubated with DC-HIL-Fc (10 mg/ml) plus indicated oligoglycans, and DC-HIL binding was fluorescently stained with anti-Fc Ab and FACS analysis. FIG. 1C provides histograms showing binding of Fc control (blue) or DC-HIL-Fc (red), respectively.

The nature of assay [3]: HS glycan microarray analysis of 1A7 SdAb (53 glycan compounds). It is filed as binding. As to conditions: 1A7 SdAb 10 μg, anti-c-myc label, FIG. 4. The protocol:
1A7 SdAb (10 μg) was hybridized with HS glycan microarray consisting of 53 glycan compounds (Glycan Therapeutics Inc) and fluorescently labeled with anti-c-myc. Hybridized arrays were analyzed for fluorescence intensity (U); average±sd, n=100). SdAb has the C-terminal c-myc tag.

Assay [4] relates to human SK-MEL-28 melanoma cell line. Nature of the assay: Lung metastasis of human SK-MEL-28 melanoma cells in xenograft NSG mice. It is filed as in vivo. As to conditions: single i.v. injection 10 mg/mouse one day before SK-MEL-28 i.v., Day 14, vs KLH. The protocol:
A final experiment was performed to determine the effect of an anti-rHS antibody on human lung metastasis in a xenograft mouse model. Immuno-deficient NSG mice (n=5) were injected i.v. with KLH or 1A7 SdAb (10 mg/mouse). Next day, mice were given i.v. injection of 2×10^5 human SK-MEL-28 melanoma cell line. Note: Ab injection is just one time. On Day 14, lung was enumerated by FACS for GFP^+ cells (FIG. 16A) and the number in 5×10^5 lung cells (average±sd, n=5) are summarized (FIG. 16B). *p<0.0001. Data are representative of 2 separate experiments. 1A7 single injection decreased human melanoma in lung by 84% (FIGS. 16A and 16B).

The subject of a further assay is LacZ-LL2 cells. Nature of the assay: Spontaneous lung metastasis from resected s.c. LacZ-LL2 primary tumor. It is filed as in vivo, mice. As to conditions: Ab injection every 3 days after tumor resection, lungs 2 weeks later. The protocol: Briefly, mice were implanted s.c. with LacZ-LL2 cells, 2 weeks later, tumor was resected surgically. Mice were then treated with Ab injection every 3 days. 2 weeks later, lungs were excised and stained with X-gal (labeled LacZ-LL2 cells in blue) and blue stains were counted. FIG. 17B provides representative images of lung sections stained with X-gal, showing by green or red arrows. The number of tumor cells per field of view (FOV) were counted and plotted in FIG. 17C alongside and average of 5 FOVs. Each dot represents an individual mouse.

In a further assay the test system is Pan-T cells. Nature of the assay: Anti-CD3-induced Pan-T cell proliferation (3H-thymidine) on wells coated with 1A7. In kind it is cell-based, human. As to conditions: wells pre-coated with 4 mg/well Ab plus increasing doses of anti-CD3 Ab, 2 days, vs KLH control Ab. The protocol: The ability of 1A7 to affect induction of T-cell activation using anti-CD3 antibodies was tested. Pan-T cells isolated from blood sample of a healthy donor were incubated with wells (2×10^5 cells/well) pre-coated with 1A7 or KLH control Ab (4 mg/well) plus increasing doses of anti-CD3 Ab. After incubation for 2 days, ^3H-thymidine was pulsed for 16 h, harvested, and counted for cpm in cells. […] Data are shown average±SD, n=3

Assay [5] is described as follows: ELISA: DC-HIL-Fc binding to Glycan #12-coated wells with increasing dose of 1A7 SdAb. As to conditions: DC-HIL-Fc 1 mg/ml, increasing dose of 1A7 SdAb, FIG. 3D. The method, then:
SdAbs were obtained as described in Example 2. All SdAb clones were purified from DNA-transfected CHO cells. […] Biotinylated Glycan #12 (0.5 mg/ml) was immobilized to ELISA wells precoated with streptavidin (1 mg/ml) and incubated with increasing doses of 1A7 SdAb (FIG. 3A), FGF2 (negative control, FIG. 3B) and VEGF (positive control, FIG. 3C). After incubating for 1 h, wells were washed and binding measured by anti-c-myc Ab (OD450); SdAb has the C-terminal c-myc tag. In FIG. 3D, DC-HIL-Fc (1 mg/ml) was incubated with Glycan #12-coated wells, with increasing dose of 1A7 SdAb. % inhibition is shown. […] In FIG. 3E: FGF2 or VEGF (0.25 or 0.5 mg/ml) was added to Glycan #12-wells with 0.5 mg/ml of 1A7 or control SdAb (Ctrl), which is specific for KLH. % inhibition is shown. To examine the expression of the 1A7 epitope, immortalized murine […] cells (SVEC) were treated with 50 mM Sodium Cholate (red histogram) or untreated (Blue). Next day, cells were analyzed by FACS for expression of 1A7 epitope (FIG. 3F). […] FIG. 3H summarizes all data from experiments of binding/inhibition and expression analysis on different tumor lines. “Block DC-HIL (or VEGF or FGF2)” means blocking of binding to Glycan #12.

For a further assay, the system named is LL2 cells. Nature of the assay: Experimental lung metastasis after i.v. injection of LL2 cells. As to conditions: day 18, vs KLH. In kind it is in vivo, mice. The method, then: (§2) On day 6 after implantation s.c. of B16 melanoma cells (2×10^5 cells/mouse), mice were treated i.p. with 1A7 or KLH Ab (10 mg/mouse, every 2 days, 5×, shown by reverse arrows). In separate experiments, tumor free mice were injected intravenously (i.v) with 1A7 or KLH (10 mg/mouse) either one day before (d-1) or one day after (d1) intravenous (i.v) injection with B16 or LL2 cells (2×10^5 cells/mouse, n=5). On day 12 (for mice injected with B16 cells) or day 18 (for mice injected with LL2 cells), the number of GFP+ cells in 5×10^5 lung cells was determined via FACS. FIG. 11C-11E summarize numbers of positive cells in each condition.

Assay [6] concerns B16 melanoma cells. Nature of the assay: B16 melanoma s.c. tumor growth, i.p. 1A7 or KLH Ab. It is filed as in vivo, mice. As to conditions: 10 mg/mouse i.p. every 2 days 5× from day 6, vs KLH Ab. The method, then:
as §2

For another assay, the system named is B16 cells. Nature of the assay: Experimental lung metastasis after i.v. injection of B16 cells. It is filed as in vivo, mice. The protocol: as §2
1A7 SdAb was compared to other standard treatments (e.g., anti-PDL1 antibody, anti-VEGFR2 antibodies) for its ability to inhibit metastasis using the B16 cell model. Mice (n=5) were injected i.v. with KLH, 1A7 SdAb (10 mg/mouse), anti-DC-HIL (DCH), anti-PDL1 (PL1), anti-VEGFR2 (VER) or combined PL1/VER (PL/VE) mAb ([…]). Next day, mice were given i.v. injection of 2×10^5 B16 cells/mouse. Note: Ab injection was a one-time treatment. On Day 14, lung was enumerated by FACS for GFP^+ cells (FIG. 12A) and the number in 5×10^5 lung cells (average±sd, n=5) are summarized (FIG. 12B). *p<0.0001; **p=0.007. Data are representative of 2 separate experiments. […]

The test system of the next assay is B16F10 melanoma cells. Nature of the assay: B16F10 melanoma s.c. tumor growth and tumor IHC, rHS Ab vs PD1 Ab. In kind it is in vivo, B57BL/6 mice. The method, then:
Antitumor activity of rHS Ab to B16 melanoma was examined. Briefly, B16F10 melanoma cells (5×10^5 cells/mouse) were implanted s.c. into B57BL/6 mice (n=5). Six days later, mice were treated with i.p. injection of Ab every 2 days; 1A7 rHS Ab (20 mg/mouse), PD1 ([…]), rHS/PD1 (20 mg and 200 mg, respectively) or control (Ctrl) Ab ([…]). Tumor volume was measured every 2 days (FIG. 20A). On day 15, all mice were euthanized, tumors were excised and IHC-stained with marker Ab (CD4, CD8, CD11b, and CD31) (FIG. 20B). Positive staining is assayed by % positively stained areas in 4.5 mm2 view (mean±sd, n=5). […] Thus, rHS Ab inhibited melanoma growth, reversing immune suppression and tumor angiogenesis.

“GlcNS6S-GlcA-GlcNS6S-IdoA2S-GlcNS6S-IdoA2S-GlcNS6S-GlcA [Glycan #12]”: the “Tumor volume (growth of melanoma)” value in the assay on B16 melanoma cells [1] (B16 s.c. in B6 mice, 1 mg glycan intra-tumorally 5 times every 2 days from day 6) is “markedly attenuated growth”. Besides, the “tumor expression of angiogenic factors (qRT-PCR relative to GAPDH)” value with B16 melanoma cells [1] (B16 tumors excised on day 17) and in the assay with RenCa kidney cancer (RenCa tumors) was “inhibited tumor expression of angiogenic factors” each time. In [2], the “DC-HIL-induced angiogenesis (blood vessels, Hb content of plugs)” value is “completely abrogated”. Besides, in the assay with RenCa kidney cancer (RenCa in BALB/c mice, intra-tumoral glycan), the “Tumor volume (growth of kidney cancer)” value is reported as “markedly attenuated growth”. Further, in the assay with DC-HIL-Fc, the “binding of DC-HIL-Fc to each glycan as average RFU” value was “strongest binding”.

B1: 1A7: single domain antibody clone, single variable heavy chain (VH), SEQ ID NO: 18, specific for rare heparan sulfate glycan (Glycan #12) (protein)
VHH: QVQLLESGGGLVQPGGSLRLSCAASGVKVSTKSMGWVRQAPGKGLEWVSTIARNDGSTYYADSVKGRFTISRDNSKNTLYLQMNSLRAEDTAVYYCARMKKNGGSKRQPHIRSWGQGTLVTVSS
modifications: Synthetic construct - Clone 1A7
For the molecule B1, the “affinity for Glycan #12 (fluorescence intensity on HS glycan microarray)” value in assay [3] is “robust affinity”. Besides, the “decrease of human melanoma in lung (GFP+ cells in 5×10^5 lung cells)” value in assay [4] turned out to be 84%. The “spontaneous lung metastasis (tumor cells per field of view, X-gal)” value with LacZ-LL2 cells was “significantly reduced”. Moreover, the “T cell replication (activation), 3H-thymidine cpm” value in the assay with Pan-T cells is on record as “significantly less replication”. Moreover, the “competition with DC-HIL-Fc for binding to Glycan #12 (% inhibition)” value in assay [5] is on record as “compete for a similar binding site”. In addition, the “lung metastasis: number of GFP+ cells in 5×10^5 lung cells” value (“lung metastasis: number of GFP+ cells” below) in the assay with LL2 cells (single 10 mg/mouse i.v. one day after (d1)) is given as “significantly reduced”. Further, the “lung metastasis: number of GFP+ cells” value in the assay on LL2 cells (single 10 mg/mouse i.v. one day before (d-1)) is “significantly reduced”. Moreover, the “Tumor volume (tumor growth)” value with B16 melanoma cells [6] was “significantly reduced”. In addition, the “lung metastasis: number of GFP+ cells” value with B16 cells (B16 i.v., single 10 mg/mouse i.v. one day before (d-1), day 12, vs KLH) was “significantly reduced”. Besides, the “growth of B16 metastasis (GFP+ cells in 5×10^5 lung cells) compared to other treatments” value in the assay on B16 cells (single i.v. 10 mg/mouse one day before B16 i.v., Day 14, comparators anti-PDL1, anti-VEGFR2 200 mg/mouse) is listed as “inhibited growth of B16 metastasis, more than currently FDA-approved drugs”. The “Tumor volume (melanoma growth) compared with PD1 Ab” value with B16F10 melanoma cells (20 mg/mouse i.p. every 2 days from day 6, PD1 200 mg/mouse) is listed as “better outcomes than PD1 Ab”. In the assay with B16F10 melanoma cells (tumors excised day 15), the “tumor density of CD4 T cells (% positively stained areas, IHC)” value is “increased tumor densities”; the “tumor density of CD8 T cells (% positively stained areas, IHC)” value is listed as “increased tumor densities”; the “tumor density of CD11b (% positively stained areas, IHC)” value is reported as “decreased densities”; the “tumor density of microvacuoles (CD31, % positively stained areas, IHC)” value is given as “decreased densities”.

For the origin of these results see patent publication US20250019465A1, “COMPOSITIONS AND METHODS FOR RARE HEPARAN SULFATE GLYCAN-TARGETED CANCER TREATMENT” (THE BOARD OF REGENTS OF THE UNIVERSITY OF TEXAS SYSTEM, priority 2021, published 2025).
